# How the values were obtained:
# Assay type in all cases: cell-based, human
# fibrocytes = assay: IL-10, icIL-1RA, sIL-1RA expression (PCR, ELISA)
# Procedure: FIGS. 11A-11F are graphs showing teprotumumab attenuates bTSH induced IL-10 while enhancing icIL-1RA and sIL-1RA expression in fibrocytes and GD-OF. Fibrocyte cultures were treated with teprotumumab (50 μg/ml), rhSlit2 (50 ng/ml) or human Isotype IgG for 7-9 d, with bTSH (5 mIU/mL) for final 6 h. RNA was extracted and reverse transcribed. Isolated cDNA was subjected to quantitative real-time PCR for IL-10 (FIGS. 11A and 11B), icIL-1RA (FIGS. 11C and 11D). Media and cellular proteins were collected and subjected to specific ELISAs for icIL-1RA and sIL-1RA (FIGS. 11E, 11F, 11G, and 11H). PCR values were normalized to their respective GAPDH levels. icIL-1RA and sIL-1RA protein levels were normalized to cellular protein levels. Data are expressed as the mean±SD of three independent determinations. Experiments were repeated three times. **, p<0.01; ***. P<0.001.
# IL-12, IL-23, IL-10, HA and BAFF ELISAs. Confluent cultures were treated with nothing or teprotumumab (50 μg/mL) for 5 d, without or with bTSH (5 mU/mL) for the intervals indicated or 72 h. Media and rinsed cell layers were homogenized in 0.1M NaCl and assayed for HA content using an ELISA kit (K-1200) from Echelon Biosciences Inc. (Salt Lake City, UT) according to manufacturer's instructions. A BAFF specific ELISA, purchased from R & D systems, was used in accordance with the manufacturer's instructions.
# (§1) Real-time PCR Confluent fibrocyte and GD-OF cultures were incubated with bTSH (5 mIU/mL), teprotumumab (50 μg/mL) or linsitinib (1 μM) for the time intervals indicated, washed with PBS and RNA was extracted with the Aurum Total RNA Mini Kit (cat. #732-6820, Bio-Rad, Hercules, CA). Cellular RNA (2 μg) was reverse transcribed using QuantiTect Reverse Transcription kit (cat. #205314, Qiagen (Germantown, MD) and real-time PCR was performed using an Applied Biosystems instrument with QuantiTect SYBR Green PCR kit (cat. no. 204143; Qiagen, Frederick, MD). Primer sequences were as follows.
# fibrocytes and GD-OF = assay: BAFF expression and induction by bTSH; conditions: teprotumumab 50 μg/ml or rhSlit2 50 ng/ml
# Procedure: FIGS. 12A-12F are graphs showing the effect of bTSH, teprotumumab, and Slit2 on B-cell activating factor (BAFF) expression in fibrocytes and GD-OF. In FIGS. 12A and 12B, cultures were treated for the graded intervals indicated along the abscissas with bTSH (5 mIU/mL). Cellular RNA was harvested and subjected to reverse transcription by RT-PCR (FIG. 12A). Values were normalized to their respective GAPDH levels Medium was assayed for BAFF levels with an ELISA (FIG. 12B). Values were normalized to respective monolayer protein content. Data are expressed as mean f SD of triplicate determinations; *, p<0.05; **, p<0.01; ***, p<0.001. In FIGS. 12C-12F, bTSH, teprotumumab (50 μg/ml) or recombinant human Slit2 (rhSlit2) (50 ng/ml) were added to culture media for the times indicated and analyzed for BAFF mRNA levels as in FIG. 12A. In FIGS. 12F, parental GD-OF strains were sorted into pure CD34^+ and CD34^− subsets. Subsets were then cultured for 48 h, the final 6 h in the absence or presence of bTSH. Data were expressed as mean f SD of triplicate independent determinations from a single experiment representative of three conducted. *, p<0.05; **, p<0.01
# IL-12, IL-23, IL-10, HA and BAFF ELISAs. Confluent cultures were treated with nothing or teprotumumab (50 μg/mL) for 5 d, without or with bTSH (5 mU/mL) for the intervals indicated or 72 h. […]
# CD34+ fibrocytes = assay: MHC II, CD80, CD86, PD-L1 expression in cultured fibrocytes (RT-qPCR, flow cytometry); conditions: rhSlit2 50 ng/ml, 5 to 7 d
# From the text: Fibrocyte and T cell isolation and cultivation. Peripheral blood mononuclear cells (PBMCs) were obtained from the venous circulation of clinic patients with GD, TAO or from healthy donors after obtaining informed consent. PBMCs were also obtained from Red Cross donor plasmapheresis filters. They were isolated by Ficoll-Histopaque (Sigma-Aldrich, St. Louis, MO) density gradient centrifugation. Fibrocytes were cultivated as described (Bucala, R, et al., (1994) Mol Med 1, 71-81, incorporated herein by reference in its entirety) except that culture substrata remained uncoated with fibronectin, as previously described (Douglas, R. S., et al. (2010) The Journal of clinical endocrinology and metabolism 95, 430-438). Isolated PBMCs (1×10^6-1×107) were inoculated in six-well plates covered with DMEM containing 10% FBS and incubated in 10-14 days. Adherent monolayers (<5% of the starting population) were washed with PBS and detached using accutase (Millipore) treatment, or mechanical scraping following accutase treatment. Culture purity was routinely confirmed by FACS analysis to be >90% fibrocytes by confirming the CD31^−CD45^+CD34^+CXCR4^+Col I^+TSFR^high phenotype.
# Invariably, a small population of tightly adherent T cells were found in the fibrocyte cultures, consistent with the previous findings. Culture viability was routinely verified to be >90%. CD4^+ T cells were enriched using the CD4 isolation cocktail (Cat #0.130-096-533, Miltenyi Biotec, San Diego, CA) followed by negative selection using a magnetic column (Cat #0.130-042-401) according to manufacturer's protocol. Fibrocytes and isolated T cells were cultured and remained untreated or were incubated with human IgG isotype control (5 μg/ml) or teprotumumab (50 μg/mL) for 7 to 9 days. Single cell suspensions were stained with anti-human CD4, CD3, CD34, MHC-2, CD80, CD86, and PD-L1 (BD Biosciences) for 30 min, rinsed and fixed with CytoPerm/CytoFix (BD). They were then stained with anti-human INFγ and IL-17A for 20 min, rinsed, and subjected to the flow cytometry analysis. Gated CD34^+CXCR4^+ fibrocytes and CD4^+CD3^+ T cells were analyzed using quadrant settings based on negative isotype staining.
# In vitro studies of CD34^+ fibrocytes and T cells PBMC and GD-OF monolayers were treated in vitro with human IgG isotype control (5 μg/ml), teprotumumab (50 μg/mL), H7 (5 μg/mL), linsitinib (1 μM), bTSH (5 mIU/mL), M22 (1 μg/mL), or IGF-1 (10 nM) for the intervals indicted in the figure legends in a 37° C., 5% CO2, humidified incubator until confluent. Brefeldin A (0.66 μl/ml), (Golgi Stop™, BD Biosciences), phorbol 12-myristate 13-acetate (PMA) (50 ng/ml) and ionomycin (1 μg/mL) were added for 5 h. Cells were rinsed with flow cytometry buffer (1×PBS, 0.5% BSA, 0.1% sodium azide) and stained with the relevant monoclonal antibodies.
# as §1
# [1] = teprotumumab 50 μg/ml or rhSlit2 50 ng/ml, 7-9 d
molecule,measurement,setting,value
"rhSlit2: recombinant human Slit2, a neural axon repellent generated by CD34− OF (protein, UniProt O94813 31-1529, looked up) Slit homolog 2 protein: QCSCSGSTVDCHGLALRSVPRNIPRNTERLDLNGNNITRITKTDFAGLRHLRVLQLMENKISTIERGAFQDLKELERLRLNRNHLQLFPELLFLGTAKLYRLDLSENQIQAIPRKAFRGAVDIKNLQLDYNQISCIEDGAFRALRDLEVLTLNNNNITRLSVASFNHMPKLRTFRLHSNNLYCDCHLAWLSDWLRQRPRVGLYTQCMGPSHLRGHNVAEVQKREFVCSGHQSFMAPSCSVLHCPAACTCSNNIVDCRGKGLTEIPTNLPETITEIRLEQNTIKVIPPGAFSPYKKLRRIDLSNNQISELAPDAFQGLRSLNSLVLYGNKITELPKSLFEGLFSLQLLLLNANKINCLRVDAFQDLHNLNLLSLYDNKLQTIAKGTFSPLRAIQTMHLAQNPFICDCHLKWLADYLHTNPIETSGARCTSPRRLANKRIGQIKSKKFRCSAKEQYFIPGTEDYRSKLSGDCFADLACPEKCRCEGTTVDCSNQKLNKIPEHIPQYTAELRLNNNEFTVLEATGIFKKLPQLRKINFSNNKITDIEEGAFEGASGVNEILLTSNRLENVQHKMFKGLESLKTLMLRSNRITCVGNDSFIGLSSVRLLSLYDNQITTVAPGAFDTLHSLSTLNLLANPFNCNCYLAWLGEWLRKKRIVTGNPRCQKPYFLKEIPIQDVAIQDFTCDDGNDDNSCSPLSRCPTECTCLDTVVRCSNKGLKVLPKGIPRDVTELYLDGNQFTLVPKELSNYKHLTLIDLSNNRISTLSNQSFSNMTQLLTLILSYNRLRCIPPRTFDGLKSLRLLSLHGNDISVVPEGAFNDLSALSHLAIGANPLYCDCNMQWLSDWVKSEYKEPGIARCAGPGEMADKLLLTTPSKKFTCQGPVDVNILAKCNPCLSNPCKNDGTCNSDPVDFYRCTCPYGFKGQDCDVPIHACISNPCKHGGTCHLKEGEEDGFWCICADGFEGENCEVNVDDCEDNDCENNSTCVDGINNYTCLCPPEYTGELCEEKLDFCAQDLNPCQHDSKCILTPKGFKCDCTPGYVGEHCDIDFDDCQDNKCKNGAHCTDAVNGYTCICPEGYSGLFCEFSPPMVLPRTSPCDNFDCQNGAQCIVRINEPICQCLPGYQGEKCEKLVSVNFINKESYLQIPSAKVRPQTNITLQIATDEDSGILLYKGDKDHIAVELYRGRVRASYDTGSHPASAIYSVETINDGNFHIVELLALDQSLSLSVDGGNPKIITNLSKQSTLNFDSPLYVGGMPGKSNVASLRQAPGQNGTSFHGCIRNLYINSELQDFQKVPMQTGILPGCEPCHKKVCAHGTCQPSSQAGFTCECQEGWMGPLCDQRTNDPCLGNKCVHGTCLPINAFSYSCKCLEGHGGVLCDEEEDLFNPCQAIKCKHGKCRLSGLGQPYCECSSGYTGDSCDREISCRGERIRDYYQKQQGYAACQTTKKVSRLECRGGCAGGQCCGPLRSKRRKYSFECTDGSSFVDEVEKVVKCGCTRCVS",sIL-1RA expression (protein),"fibrocytes; ELISA, fibrocytes",attenuated
same,"IL-10 mRNA, basal and bTSH-provoked expression",fibrocytes; [1],downregulated
same,basal and bTSH-dependent icIL-1RA and sIL-1RA mRNA levels,fibrocytes; [1],upregulated
same,bTSH induction of BAFF,fibrocytes and GD-OF,similar
same,MHC II and B7 expression,CD34+ fibrocytes,repressing

# Reference: patent US20250034264A1, “REGULATING T CELL IMMUNE RESPONSE THROUGH IGF-I RECEPTOR (IGF-1R)” (The Regents of the University of Michigan, priority 2021, published 2025)
